Measured values reported in patent publication US20210139548A1 (published 2021).
*1 amine or outer side, *2 acyl side, *3 side chain or, on linkers, in order; H or OH if unused. Side-chain parts run from the residue outwards. The star is where a group is joined. C18 diacid = O=C(O)CCCCCCCCCCCCCCCCC(=O)*; γGlu = O=C(O)[C@H](CCC(=O)[*:2])N[*:1]; Isovaleryl = CC(C)CC(=O)*; AEEA = NCCOCCOCC(=O)O

T1: human neuropeptide Y2 receptor (human, UniProt P49146 1-381)
T1 construct: whole, on cells; also called hNPY2 receptor; hNPY2-R
T1 sequence (looked up): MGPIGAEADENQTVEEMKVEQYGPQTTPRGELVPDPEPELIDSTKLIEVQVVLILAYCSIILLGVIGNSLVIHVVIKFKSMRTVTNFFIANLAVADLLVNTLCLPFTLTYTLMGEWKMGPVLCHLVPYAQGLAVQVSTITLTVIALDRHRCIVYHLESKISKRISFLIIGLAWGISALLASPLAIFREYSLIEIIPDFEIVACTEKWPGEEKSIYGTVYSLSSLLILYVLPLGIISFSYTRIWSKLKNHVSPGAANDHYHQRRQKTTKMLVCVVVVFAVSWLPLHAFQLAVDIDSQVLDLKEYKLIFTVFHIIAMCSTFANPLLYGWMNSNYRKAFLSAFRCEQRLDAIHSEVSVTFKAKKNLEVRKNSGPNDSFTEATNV


Molecular target: T1, human neuropeptide Y2 receptor
Assay: radioligand competition (125I-PYY(1-36)), hNPY2R membranes
Summary of the method: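 Commercial human Y2 receptor membranes (0.5 μg protein/well) were incubated with peptide for 2 h at room temperature in 50 mM HEPES, 5 mM MgCl₂, 1 mM CaCl₂, pH 7.4, with 0.2% ovalbumin. Bound radioligand was separated on PEI-soaked GF/C filters and counted by scintillation, and IC₅₀ came from nonlinear sigmoidal regression.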

Ki [nM]	Binder
0.4	Isovaleryl-APEK([AEEA-AEEA-γGlu-C18 diacid])PPEDASPEEIQRYYVSLRHYYNWLTRQRY-NH2 (SMILES CC[C@H](C)[C@H](NC(=O)[C@H](CCC(=O)O)NC(=O)[C@H](CCC(=O)O)NC(=O)[C@@H]1CCCN1C(=O)[C@H](CO)NC(=O)[C@H](C)NC(=O)[C@H](CC(=O)O)NC(=O)[C@H](CCC(=O)O)NC(=O)[C@@H]1CCCN1C(=O)[C@@H]1CCCN1C(=O)[C@H](CCCCNC(=O)COCCOCCNC(=O)COCCOCCNC(=O)CC[C@H](NC(=O)CCCCCCCCCCCCCCCCC(=O)O)C(=O)O)NC(=O)[C@H](CCC(=O)O)NC(=O)[C@@H]1CCCN1C(=O)[C@H](C)NC(=O)CC(C)C)C(=O)N[C@@H](CCC(N)=O)C(=O)N[C@@H](CCCNC(=N)N)C(=O)N[C@@H](Cc1ccc(O)cc1)C(=O)N[C@@H](Cc1ccc(O)cc1)C(=O)N[C@H](C(=O)N[C@@H](CO)C(=O)N[C@@H](CC(C)C)C(=O)N[C@@H](CCCNC(=N)N)C(=O)N[C@@H](Cc1c[nH]cn1)C(=O)N[C@@H](Cc1ccc(O)cc1)C(=O)N[C@@H](Cc1ccc(O)cc1)C(=O)N[C@@H](CC(N)=O)C(=O)N[C@@H](Cc1c[nH]c2ccccc12)C(=O)N[C@@H](CC(C)C)C(=O)N[C@H](C(=O)N[C@@H](CCCNC(=N)N)C(=O)N[C@@H](CCC(N)=O)C(=O)N[C@@H](CCCNC(=N)N)C(=O)N[C@@H](Cc1ccc(O)cc1)C(N)=O)[C@@H](C)O)C(C)C) [Compound 61]
5.95	Isovaleryl-APEK([AEEA-AEEA-γGlu-C18 diacid])PEEAASPEELEQYYVSLRHYYNWLTRQRY-NH2 (SMILES CC(C)CC(=O)N[C@@H](C)C(=O)N1CCC[C@H]1C(=O)N[C@@H](CCC(=O)O)C(=O)N[C@@H](CCCCNC(=O)COCCOCCNC(=O)COCCOCCNC(=O)CC[C@H](NC(=O)CCCCCCCCCCCCCCCCC(=O)O)C(=O)O)C(=O)N1CCC[C@H]1C(=O)N[C@@H](CCC(=O)O)C(=O)N[C@@H](CCC(=O)O)C(=O)N[C@@H](C)C(=O)N[C@@H](C)C(=O)N[C@@H](CO)C(=O)N1CCC[C@H]1C(=O)N[C@@H](CCC(=O)O)C(=O)N[C@@H](CCC(=O)O)C(=O)N[C@@H](CC(C)C)C(=O)N[C@@H](CCC(=O)O)C(=O)N[C@@H](CCC(N)=O)C(=O)N[C@@H](Cc1ccc(O)cc1)C(=O)N[C@@H](Cc1ccc(O)cc1)C(=O)N[C@H](C(=O)N[C@@H](CO)C(=O)N[C@@H](CC(C)C)C(=O)N[C@@H](CCCNC(=N)N)C(=O)N[C@@H](Cc1c[nH]cn1)C(=O)N[C@@H](Cc1ccc(O)cc1)C(=O)N[C@@H](Cc1ccc(O)cc1)C(=O)N[C@@H](CC(N)=O)C(=O)N[C@@H](Cc1c[nH]c2ccccc12)C(=O)N[C@@H](CC(C)C)C(=O)N[C@H](C(=O)N[C@@H](CCCNC(=N)N)C(=O)N[C@@H](CCC(N)=O)C(=O)N[C@@H](CCCNC(=N)N)C(=O)N[C@@H](Cc1ccc(O)cc1)C(N)=O)[C@@H](C)O)C(C)C) [Compound 60]

Second part, the binder before the results:

Binder	Ki [nM]
Isovaleryl-APEK([AEEA-AEEA-γGlu-C18 diacid])AEEEASPEELQRYYVSLRHYYNWLTRQRY-NH2 (SMILES CC(C)CC(=O)N[C@@H](C)C(=O)N1CCC[C@H]1C(=O)N[C@@H](CCC(=O)O)C(=O)N[C@@H](CCCCNC(=O)COCCOCCNC(=O)COCCOCCNC(=O)CC[C@H](NC(=O)CCCCCCCCCCCCCCCCC(=O)O)C(=O)O)C(=O)N[C@@H](C)C(=O)N[C@@H](CCC(=O)O)C(=O)N[C@@H](CCC(=O)O)C(=O)N[C@@H](CCC(=O)O)C(=O)N[C@@H](C)C(=O)N[C@@H](CO)C(=O)N1CCC[C@H]1C(=O)N[C@@H](CCC(=O)O)C(=O)N[C@@H](CCC(=O)O)C(=O)N[C@@H](CC(C)C)C(=O)N[C@@H](CCC(N)=O)C(=O)N[C@@H](CCCNC(=N)N)C(=O)N[C@@H](Cc1ccc(O)cc1)C(=O)N[C@@H](Cc1ccc(O)cc1)C(=O)N[C@H](C(=O)N[C@@H](CO)C(=O)N[C@@H](CC(C)C)C(=O)N[C@@H](CCCNC(=N)N)C(=O)N[C@@H](Cc1c[nH]cn1)C(=O)N[C@@H](Cc1ccc(O)cc1)C(=O)N[C@@H](Cc1ccc(O)cc1)C(=O)N[C@@H](CC(N)=O)C(=O)N[C@@H](Cc1c[nH]c2ccccc12)C(=O)N[C@@H](CC(C)C)C(=O)N[C@H](C(=O)N[C@@H](CCCNC(=N)N)C(=O)N[C@@H](CCC(N)=O)C(=O)N[C@@H](CCCNC(=N)N)C(=O)N[C@@H](Cc1ccc(O)cc1)C(N)=O)[C@@H](C)O)C(C)C) [Compound 51]	39.4
Isovaleryl-APEK([AEEA-AEEA-γGlu-C18 diacid])PEADAEPEELQRYYVSLRHYYNWLTRQRY-NH2 (SMILES CC(C)CC(=O)N[C@@H](C)C(=O)N1CCC[C@H]1C(=O)N[C@@H](CCC(=O)O)C(=O)N[C@@H](CCCCNC(=O)COCCOCCNC(=O)COCCOCCNC(=O)CC[C@H](NC(=O)CCCCCCCCCCCCCCCCC(=O)O)C(=O)O)C(=O)N1CCC[C@H]1C(=O)N[C@@H](CCC(=O)O)C(=O)N[C@@H](C)C(=O)N[C@@H](CC(=O)O)C(=O)N[C@@H](C)C(=O)N[C@@H](CCC(=O)O)C(=O)N1CCC[C@H]1C(=O)N[C@@H](CCC(=O)O)C(=O)N[C@@H](CCC(=O)O)C(=O)N[C@@H](CC(C)C)C(=O)N[C@@H](CCC(N)=O)C(=O)N[C@@H](CCCNC(=N)N)C(=O)N[C@@H](Cc1ccc(O)cc1)C(=O)N[C@@H](Cc1ccc(O)cc1)C(=O)N[C@H](C(=O)N[C@@H](CO)C(=O)N[C@@H](CC(C)C)C(=O)N[C@@H](CCCNC(=N)N)C(=O)N[C@@H](Cc1c[nH]cn1)C(=O)N[C@@H](Cc1ccc(O)cc1)C(=O)N[C@@H](Cc1ccc(O)cc1)C(=O)N[C@@H](CC(N)=O)C(=O)N[C@@H](Cc1c[nH]c2ccccc12)C(=O)N[C@@H](CC(C)C)C(=O)N[C@H](C(=O)N[C@@H](CCCNC(=N)N)C(=O)N[C@@H](CCC(N)=O)C(=O)N[C@@H](CCCNC(=N)N)C(=O)N[C@@H](Cc1ccc(O)cc1)C(N)=O)[C@@H](C)O)C(C)C) [Compound 56]	1.26
Isovaleryl-APEK([AEEA-AEEA-γGlu-C18 diacid])AEEDASEEELQRYYVSLRHYYNWLTRQRY-NH2 (SMILES CC(C)CC(=O)N[C@@H](C)C(=O)N1CCC[C@H]1C(=O)N[C@@H](CCC(=O)O)C(=O)N[C@@H](CCCCNC(=O)COCCOCCNC(=O)COCCOCCNC(=O)CC[C@H](NC(=O)CCCCCCCCCCCCCCCCC(=O)O)C(=O)O)C(=O)N[C@@H](C)C(=O)N[C@@H](CCC(=O)O)C(=O)N[C@@H](CCC(=O)O)C(=O)N[C@@H](CC(=O)O)C(=O)N[C@@H](C)C(=O)N[C@@H](CO)C(=O)N[C@@H](CCC(=O)O)C(=O)N[C@@H](CCC(=O)O)C(=O)N[C@@H](CCC(=O)O)C(=O)N[C@@H](CC(C)C)C(=O)N[C@@H](CCC(N)=O)C(=O)N[C@@H](CCCNC(=N)N)C(=O)N[C@@H](Cc1ccc(O)cc1)C(=O)N[C@@H](Cc1ccc(O)cc1)C(=O)N[C@H](C(=O)N[C@@H](CO)C(=O)N[C@@H](CC(C)C)C(=O)N[C@@H](CCCNC(=N)N)C(=O)N[C@@H](Cc1c[nH]cn1)C(=O)N[C@@H](Cc1ccc(O)cc1)C(=O)N[C@@H](Cc1ccc(O)cc1)C(=O)N[C@@H](CC(N)=O)C(=O)N[C@@H](Cc1c[nH]c2ccccc12)C(=O)N[C@@H](CC(C)C)C(=O)N[C@H](C(=O)N[C@@H](CCCNC(=N)N)C(=O)N[C@@H](CCC(N)=O)C(=O)N[C@@H](CCCNC(=N)N)C(=O)N[C@@H](Cc1ccc(O)cc1)C(N)=O)[C@@H](C)O)C(C)C) [Compound 52]	8.53
Isovaleryl-APEK([AEEA-AEEA-γGlu-C18 diacid])PEEDASPEEAQRYYVSLRHYYNWLTRQRY-NH2 (SMILES CC(C)CC(=O)N[C@@H](C)C(=O)N1CCC[C@H]1C(=O)N[C@@H](CCC(=O)O)C(=O)N[C@@H](CCCCNC(=O)COCCOCCNC(=O)COCCOCCNC(=O)CC[C@H](NC(=O)CCCCCCCCCCCCCCCCC(=O)O)C(=O)O)C(=O)N1CCC[C@H]1C(=O)N[C@@H](CCC(=O)O)C(=O)N[C@@H](CCC(=O)O)C(=O)N[C@@H](CC(=O)O)C(=O)N[C@@H](C)C(=O)N[C@@H](CO)C(=O)N1CCC[C@H]1C(=O)N[C@@H](CCC(=O)O)C(=O)N[C@@H](CCC(=O)O)C(=O)N[C@@H](C)C(=O)N[C@@H](CCC(N)=O)C(=O)N[C@@H](CCCNC(=N)N)C(=O)N[C@@H](Cc1ccc(O)cc1)C(=O)N[C@@H](Cc1ccc(O)cc1)C(=O)N[C@H](C(=O)N[C@@H](CO)C(=O)N[C@@H](CC(C)C)C(=O)N[C@@H](CCCNC(=N)N)C(=O)N[C@@H](Cc1c[nH]cn1)C(=O)N[C@@H](Cc1ccc(O)cc1)C(=O)N[C@@H](Cc1ccc(O)cc1)C(=O)N[C@@H](CC(N)=O)C(=O)N[C@@H](Cc1c[nH]c2ccccc12)C(=O)N[C@@H](CC(C)C)C(=O)N[C@H](C(=O)N[C@@H](CCCNC(=N)N)C(=O)N[C@@H](CCC(N)=O)C(=O)N[C@@H](CCCNC(=N)N)C(=O)N[C@@H](Cc1ccc(O)cc1)C(N)=O)[C@@H](C)O)C(C)C) [Compound 55]	3.35
